Target: SERINC3(iHA), Serine incorporator 3 with an internal HA tag (UniProt Q13530)

Substance | SERINC3 internalization from the cell surface, relative to wild type NL4.3 Nef (flow cytometry, co-transfected CEM T cells) [%]
HIV-1 NL4.3 Nef I11G (from UniProt P03406 1-206) (natural protein) | 0
HIV-1 NL4.3 Nef S8R (from UniProt P03406 1-206) (natural protein) | 50
